Results as given in patent US20150274841A1 (DYAX, published 2015).

biological target: T1, human plasma kallikrein (PKal) (human, UniProt P03952 20-638); assay: Ki,app; Fab inhibition of PKal cleavage of a substrate peptide, Morrison fit
T1 construct: Active PKal is cleaved at the marked R/I site into two disulfide-linked chains; also called human Pkal; active PKal
Description: Briefly, PKal and a Fab at various concentrations are incubated together for 1 hour at 30° C. A substrate peptide (cleavable by PKal) is then added to this PKal-Fab mixture. The rate of substrate peptide cleavage/proteolysis is then measured, and plotted against the concentrations of the Fab. This plot is then fit to the Morrison equation, which calculates the K_{i,app} value. The results thus obtained are shown in FIGS. 5A-5D and Table 3 below: […]

T1 sequence (P03952 20-638 limits assumed): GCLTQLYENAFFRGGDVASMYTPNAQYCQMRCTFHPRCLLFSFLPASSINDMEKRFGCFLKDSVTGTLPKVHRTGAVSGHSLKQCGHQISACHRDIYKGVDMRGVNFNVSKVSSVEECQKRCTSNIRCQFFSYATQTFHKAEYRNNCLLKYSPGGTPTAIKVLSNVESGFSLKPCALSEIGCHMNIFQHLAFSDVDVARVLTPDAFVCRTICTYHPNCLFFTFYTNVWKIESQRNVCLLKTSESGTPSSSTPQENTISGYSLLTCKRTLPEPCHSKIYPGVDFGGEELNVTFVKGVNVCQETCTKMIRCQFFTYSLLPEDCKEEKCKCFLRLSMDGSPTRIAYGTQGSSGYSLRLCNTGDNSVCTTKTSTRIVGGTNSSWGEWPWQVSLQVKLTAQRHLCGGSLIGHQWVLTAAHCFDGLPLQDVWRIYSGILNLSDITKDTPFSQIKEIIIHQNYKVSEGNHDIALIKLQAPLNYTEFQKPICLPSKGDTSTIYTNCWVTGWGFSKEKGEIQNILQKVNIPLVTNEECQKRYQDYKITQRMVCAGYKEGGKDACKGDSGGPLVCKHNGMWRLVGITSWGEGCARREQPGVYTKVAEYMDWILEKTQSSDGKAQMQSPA

Row | Binder | Ki
1 | M0200-A10 (Fab, V domains shown, HC CDR3 variant of M0162-A04, tested as Fab) VH: EVQLLESGGGLVQPGGSLRLSCAASGFTFSHYIMMWVRQAPGKGLEWVSGIYSSGGITVYADSVKGRFTISRDNSKNTLYLQMNSLRAEDTAVYYCAYRRTGVPRRDSFDIWGQGTMVTVSS VL: DIQMTQSPSTLSASVGDRVTITCRASQSISSWLAWYQQKPGKAPNLLIYKASTLESGVPSRFSGSGSGTEFTLTISSLQPDDFATYYCQQYNTYWTFGQGTKVEIK | 0.25 nM
2 | M0202-H03 (Fab, V domains shown) VH: EVQLLESGGGLVQPGGSLRLSCAASGFTFSHYIMMWVRQAPGKGLEWVSGIYSSGGITVYADSVKGRFTISRDNSKNTLYLQMNSLRAEDTAVYYCAYRRTGVPRWDDFDIWGQGTMVTVSS VL: DIQMTQSPSTLSASVGDRVTITCRASQSISSWLAWYQQKPGKAPNLLIYKASTLESGVPSRFSGSGSGTEFTLTISSLQPDDFATYYCQQYNTYWTFGQGTKVEIK | 0.1 nM
3 | M0201-H06 (Fab, V domains shown) VH: EVQLLESGGGLVQPGGSLRLSCAASGFTFSHYIMMWVRQAPGKGLEWVSGIYSSGGITVYADSVKGRFTISRDNSKNTLYLQMNSLRAEDTAVYYCAYRRTGVPRRDAFDIWGQGTMVTVSS VL: DIQMTQSPSTLSASVGDRVTITCRASQSISSWLAWYQQKPGKAPNLLIYKASTLESGVPSRFSGSGSGTEFTLTISSLQPDDFATYYCQQYNTYWTFGQGTKVEIK | 0.6 nM
4 | M0199-All (Fab, V domains shown) VH: EVQLLESGGGLVQPGGSLRLSCAASGFTFSHYIMMWVRQAPGKGLEWVSGIYSSGGITVYADSVKGRFTISRDNSKNTLYLQMNSLRAEDTAVYYCAYRRRGIPRRDAFDIWGQGTMVTVSS VL: DIQMTQSPSTLSASVGDRVTITCRASQSISSWLAWYQQKPGKAPNLLIYKASTLESGVPSRFSGSGSGTEFTLTISSLQPDDFATYYCQQYNTYWTFGQGTKVEIK | 2 nM
5 | M0202-C02 (Fab, V domains shown) VH: EVQLLESGGGLVQPGGSLRLSCAASGFTFSHYIMMWVRQAPGKGLEWVSGIYSSGGITVYADSVKGRFTISRDNSKNTLYLQMNSLRAEDTAVYYCAYRRPGVPRRDAFDIWGQGTMVTVSS VL: DIQMTQSPSTLSASVGDRVTITCRASQSISSWLAWYQQKPGKAPNLLIYKASTLESGVPSRFSGSGSGTEFTLTISSLQPDDFATYYCQQYNTYWTFGQGTKVEIK | 0.6 nM
6 | M0202-009 (Fab, V domains shown) VH: EVQLLESGGGLVQPGGSLRLSCAASGFTFSHYIMMWVRQAPGKGLEWVSGIYSSGGITVYADSVKGRFTISRDNSKNTLYLQMNSLRAEDTAVYYCAYRRIGVPRRDDFDIWGQGTMVTVSS VL: DIQMTQSPSTLSASVGDRVTITCRASQSISSWLAWYQQKPGKAPNLLIYKASTLESGVPSRFSGSGSGTEFTLTISSLQPDDFATYYCQQYNTYWTFGQGTKVEIK | 0.06 nM
7 | M0200-D03 (Fab, V domains shown) VH: EVQLLESGGGLVQPGGSLRLSCAASGFTFSHYIMMWVRQAPGKGLEWVSGIYSSGGITVYADSVKGRFTISRDNSKNTLYLQMNSLRAEDTAVYYCAYRRIGVPRRDSFDMWGQGTMVTVSS VL: DIQMTQSPSTLSASVGDRVTITCRASQSISSWLAWYQQKPGKAPNLLIYKASTLESGVPSRFSGSGSGTEFTLTISSLQPDDFATYYCQQYNTYWTFGQGTKVEIK | 0.1 nM
8 | X135-A01 (Fab, V domains shown) VH: EVQLLESGGGLVQPGGSLRLSCAASGFTFSHYIMMWVRQAPGKGLEWVSGIYSSGGITVYADSVKGRFTISRDNSKNTLYLQMNSLRAEDTAVYYCAYRRTGAPRRDAFDIWGQGTMVTVSS VL: DIQMTQSPSTLSASVGDRVTITCRASQSISSWLAWYQQKPGKAPNLLIYKASTLESGVPSRFSGSGSGTEFTLTISSLQPDDFATYYCQQYNTYWTFGQGTKVEIK | 248 nM
9 | M0201-A07 (Fab, V domains shown) VH: EVQLLESGGGLVQPGGSLRLSCAASGFTFSHYIMMWVRQAPGKGLEWVSGIYSSGGITVYADSVKGRFTISRDNSKNTLYLQMNSLRAEDTAVYYCAYRRTGVPRRDEFDIWGQGTMVTVSS VL: DIQMTQSPSTLSASVGDRVTITCRASQSISSWLAWYQQKPGKAPNLLIYKASTLESGVPSRFSGSGSGTEFTLTISSLQPDDFATYYCQQYNTYWTFGQGTKVEIK | 0.1 nM
10 | M0202-B04 (Fab, V domains shown) VH: EVQLLESGGGLVQPGGSLRLSCAASGFTFSHYIMMWVRQAPGKGLEWVSGIYSSGGITVYADSVKGRFTISRDNSKNTLYLQMNSLRAEDTAVYYCAYRRSGVPRRDAFDIWGQGTMVTVSS VL: DIQMTQSPSTLSASVGDRVTITCRASQSISSWLAWYQQKPGKAPNLLIYKASTLESGVPSRFSGSGSGTEFTLTISSLQPDDFATYYCQQYNTYWTFGQGTKVEIK | 0.2 nM
11 | M0202-E06 (Fab, V domains shown) VH: EVQLLESGGGLVQPGGSLRLSCAASGFTFSHYIMMWVRQAPGKGLEWVSGIYSSGGITVYADSVKGRFTISRDNSKNTLYLQMNSLRAEDTAVYYCAYRRRGVPRRDDFDIWGQGTMVTVSS VL: DIQMTQSPSTLSASVGDRVTITCRASQSISSWLAWYQQKPGKAPNLLIYKASTLESGVPSRFSGSGSGTEFTLTISSLQPDDFATYYCQQYNTYWTFGQGTKVEIK | 0.06 nM
12 | M0202-D09 (Fab, V domains shown) VH: EVQLLESGGGLVQPGGSLRLSCAASGFTFSHYIMMWVRQAPGKGLEWVSGIYSSGGITVYADSVKGRFTISRDNSKNTLYLQMNSLRAEDTAVYYCAYRRIGVPRRDSFDIWGQGTMVTVSS VL: DIQMTQSPSTLSASVGDRVTITCRASQSISSWLAWYQQKPGKAPNLLIYKASTLESGVPSRFSGSGSGTEFTLTISSLQPDDFATYYCQQYNTYWTFGQGTKVEIK | 0.2 nM
13 | M0202-Al2 (Fab, V domains shown, HC CDR3 variant of M0162-A04, tested as Fab; also called M0202-A12 (probable reading)) VH: EVQLLESGGGLVQPGGSLRLSCAASGFTFSHYIMMWVRQAPGKGLEWVSGIYSSGGITVYADSVKGRFTISRDNSKNTLYLQMNSLRAEDTAVYYCAYQRTGVPRRDSFNIWGQGTMVTVSS VL: DIQMTQSPSTLSASVGDRVTITCRASQSISSWLAWYQQKPGKAPNLLIYKASTLESGVPSRFSGSGSGTEFTLTISSLQPDDFATYYCQQYNTYWTFGQGTKVEIK | 0.1 nM
14 | M0202-F06 (Fab, V domains shown, HC CDR3 variant of M0162-A04, tested as Fab) VH: EVQLLESGGGLVQPGGSLRLSCAASGFTFSHYIMMWVRQAPGKGLEWVSGIYSSGGITVYADSVKGRFTISRDNSKNTLYLQMNSLRAEDTAVYYCAYRRTGVPRWDAFDIWGQGTMVTVSS VL: DIQMTQSPSTLSASVGDRVTITCRASQSISSWLAWYQQKPGKAPNLLIYKASTLESGVPSRFSGSGSGTEFTLTISSLQPDDFATYYCQQYNTYWTFGQGTKVEIK | 0.33 nM
15 | M0202-G03 (Fab, V domains shown, HC CDR3 variant of M0162-A04, tested as Fab) VH: EVQLLESGGGLVQPGGSLRLSCAASGFTFSHYIMMWVRQAPGKGLEWVSGIYSSGGITVYADSVKGRFTISRDNSKNTLYLQMNSLRAEDTAVYYCAYRRTGVPRRDSFEIWGQGTMVTVSS VL: DIQMTQSPSTLSASVGDRVTITCRASQSISSWLAWYQQKPGKAPNLLIYKASTLESGVPSRFSGSGSGTEFTLTISSLQPDDFATYYCQQYNTYWTFGQGTKVEIK | 0.4 nM
16 | M0202-H05 (Fab, V domains shown, HC CDR3 variant of M0162-A04, tested as Fab) VH: EVQLLESGGGLVQPGGSLRLSCAASGFTFSHYIMMWVRQAPGKGLEWVSGIYSSGGITVYADSVKGRFTISRDNSKNTLYLQMNSLRAEDTAVYYCAYRRTGVPRRDVFDIWGQGTMVTVSS VL: DIQMTQSPSTLSASVGDRVTITCRASQSISSWLAWYQQKPGKAPNLLIYKASTLESGVPSRFSGSGSGTEFTLTISSLQPDDFATYYCQQYNTYWTFGQGTKVEIK | 0.26 nM
17 | M0201-H08 (Fab, V domains shown, HC CDR3 variant of M0162-A04, tested as Fab) VH: EVQLLESGGGLVQPGGSLRLSCAASGFTFSHYIMMWVRQAPGKGLEWVSGIYSSGGITVYADSVKGRFTISRDNSKNTLYLQMNSLRAEDTAVYYCAYRRTGVPRRDALDNWGQGTMVTVSS VL: DIQMTQSPSTLSASVGDRVTITCRASQSISSWLAWYQQKPGKAPNLLIYKASTLESGVPSRFSGSGSGTEFTLTISSLQPDDFATYYCQQYNTYWTFGQGTKVEIK | 0.8 nM
18 | M0201-A06 (Fab, V domains shown, HC CDR3 variant of M0162-A04, tested as Fab) VH: EVQLLESGGGLVQPGGSLRLSCAASGFTFSHYIMMWVRQAPGKGLEWVSGIYSSGGITVYADSVKGRFTISRDNSKNTLYLQMNSLRAEDTAVYYCAYRRTGIPRRDVFDIWGQGTMVTVSS VL: DIQMTQSPSTLSASVGDRVTITCRASQSISSWLAWYQQKPGKAPNLLIYKASTLESGVPSRFSGSGSGTEFTLTISSLQPDDFATYYCQQYNTYWTFGQGTKVEIK | 3.8 nM
19 | M0200-E11 (Fab, V domains shown, HC CDR3 variant of M0162-A04, tested as Fab) VH: EVQLLESGGGLVQPGGSLRLSCAASGFTFSHYIMMWVRQAPGKGLEWVSGIYSSGGITVYADSVKGRFTISRDNSKNTLYLQMNSLRAEDTAVYYCAYRRTGVPRRDAFDNWGQGTMVTVSS VL: DIQMTQSPSTLSASVGDRVTITCRASQSISSWLAWYQQKPGKAPNLLIYKASTLESGVPSRFSGSGSGTEFTLTISSLQPDDFATYYCQQYNTYWTFGQGTKVEIK | 0.4 nM
20 | M0202-A01 (Fab, V domains shown, HC CDR3 variant of M0162-A04, tested as Fab) VH: EVQLLESGGGLVQPGGSLRLSCAASGFTFSHYIMMWVRQAPGKGLEWVSGIYSSGGITVYADSVKGRFTISRDNSKNTLYLQMNSLRAEDTAVYYCAYRRIGVPRRDAFDIWGQGTMVTVSS VL: DIQMTQSPSTLSASVGDRVTITCRASQSISSWLAWYQQKPGKAPNLLIYKASTLESGVPSRFSGSGSGTEFTLTISSLQPDDFATYYCQQYNTYWTFGQGTKVEIK | 0.3 nM
21 | M0200-H07 (Fab, V domains shown, HC CDR3 variant of M0162-A04, tested as Fab) VH: EVQLLESGGGLVQPGGSLRLSCAASGFTFSHYIMMWVRQAPGKGLEWVSGIYSSGGITVYADSVKGRFTISRDNSKNTLYLQMNSLRAEDTAVYYCAYRRTGVPRRNAFDNWGQGTMVTVSS VL: DIQMTQSPSTLSASVGDRVTITCRASQSISSWLAWYQQKPGKAPNLLIYKASTLESGVPSRFSGSGSGTEFTLTISSLQPDDFATYYCQQYNTYWTFGQGTKVEIK | 0.4 nM
